# Reference: patent publication US20170189529A1 (CONTRAFECT, published 2017)
# Where two headings read alike, the source gives them in different places.
# Assays:
# [1] = target: T1, hemagglutinin (HA) of influenza B virus B/Florida (Yamagata lineage) (influenza B virus B/Florida/06 …)
# [2] = target: T2, hemagglutinin (HA) of influenza B virus B/Malaysia (Victoria lineage) (influenza B virus B/Malaysia/04 …)
# [3] = target: T1, hemagglutinin (HA) of influenza B virus …; experiment: recombinant HA ELISA (AttoPhos fluorescence, mean of triplicates)
# [4] = target: T2, hemagglutinin (HA) of influenza B virus …; experiment: as above
# [5] = target: recombinant HA of influenza B virus B/Mass/12 (Yamagata clade) (influenza B virus B/Mass/12 (Yamagata …)); experiment: as above
# [6] = target: recombinant HA of influenza B virus B/Wisconsin/10 (Yamagata clade) (influenza B virus B/Wisconsin/10 …); experiment: as above
# [7] = target: recombinant HA of influenza B virus B/Brisbane/08 (Victoria clade) (influenza B virus B/Brisbane/08 …); experiment: as above
# [8] = target: hemagglutinin of influenza A virus A/Perth/16/2009 (H3), on virus (influenza A virus H3 A/Perth/16/2009); experiment: cell-based or functional assay
# [9] = target: hemagglutinin of influenza A virus A/Philippines/2/82 x-79, on virus (influenza A virus A/Philippines/2/82 …); experiment: cell-based or functional assay
# [10] = target: hemagglutinin of influenza A virus A/Udorn/307/1976, on virus (influenza A virus A/Udorn/307/1976); experiment: cell-based or functional assay
# [11] = target: hemagglutinin of influenza A virus A/New York/55/2004, on virus (influenza A virus A/New York/55/2004); experiment: cell-based or functional assay
# [12] = target: hemagglutinin of influenza A virus A/Wisconsin/67/2005, on virus (influenza A virus A/Wisconsin/67/2005); experiment: cell-based or functional assay
# [13] = target: hemagglutinin of influenza A virus A/HongKong/68, on virus (influenza A virus A/HongKong/68); experiment: cell-based or functional assay
# [14] = target: hemagglutinin of influenza A virus A/SW/MN/02719, on virus (influenza A virus A/SW/MN/02719); experiment: cell-based or functional assay
# [15] = target: hemagglutinin of influenza A virus A/Bufflehead (H4), on virus (influenza A virus H4 A/Bufflehead); experiment: cell-based or functional assay
# [16] = target: hemagglutinin of influenza A virus A/Canada/rv444/04 (H7), on virus (influenza A virus H7 A/Canada/rv444/04); experiment: cell-based or functional assay
# [17] = target: hemagglutinin of influenza A virus A/Netherlands/219/03, on virus (influenza A virus A/Netherlands/219/03); experiment: cell-based or functional assay
# [18] = target: hemagglutinin of influenza A virus A/Northern Shoveler (H10), on virus (influenza A virus H10 A/Northern …); experiment: cell-based or functional assay
# [19] = target: T3, H3 Hong Kong/8/68 HA trimer (influenza A virus H3 Hong Kong/8/68); experiment: kinetic binding to HA trimer (instrument not stated)
# T3 construct: Trimeric HA
# [20] = target: T2, hemagglutinin (HA) of influenza B virus …; experiment: affinity determination (method not stated there; data not shown)
Binder,Kd [1],fold reactivity over background [3],fold reactivity over background [4],fold reactivity over background [5],fold reactivity over background [6],fold reactivity over background [7],other results
"TRL846 (antibody, V domains shown) VH: QVQLVESGGGLVQPGGSLRLSCTVSGFTFNSYAMNWVRQAPGKGLEWVSGIRGSGENTYYAETVKGRFTISRDNSKNTLYLEMNSLRAEDTAVYYCARKWGRMTVFGVATDQLYYFDYWGQGTLVTVSS VL: DITLTQSPATLSVSPGERATLSCRASQSVSSNLAWYQQKPGQAPRLLIYGASNRATDIPARFSGSGSGTEFTLTISSLQSEDFAVYYCQQFNDWPFLTFGGGTKVEIKR",0.85 nM,25.6 fold over background,25.6 fold over background,25.6 fold over background,25.6 fold over background,25.6 fold over background,Kd [2]: < 1 nM
"TRL579 (antibody, V domains shown) VH: QVQLVQSGAEVKKPGASVKVSCKTSGYTFTAYTIHWVRQAPGQRLEWMGWINAGNGHTKYSQRFKGRVTITRDTSARTTYMELRSLTSEDTALYFCARGPETYYYDKTNWLNSHPDEYFQHWGHGTQVTVSS VL: DIQMTQSPSTLSASVGDRVTITCRASQTINNYLAWYQQKPGKAPKLLIYKASSLESGVPSRFSGSGSGTEFTLTISSLQPDDFATYYCQEYNNDSPLTFGGGTKVEIKR",,1 fold over background,1.1 fold over background,3.2 fold over background,1 fold over background,1 fold over background,"IC50 (ug/ml), MDCK monolayer microneutralization assay [8]: 0.2 µg/mL; IC50 (ug/ml), MDCK monolayer microneutralization assay [9]: 0.9 µg/mL; IC50 (ug/ml), MDCK monolayer microneutralization assay [10]: 1.9 µg/mL; IC50 (ug/ml), MDCK monolayer microneutralization assay [11]: 1.1 µg/mL; IC50 (ug/ml), MDCK monolayer microneutralization assay [12]: 1 µg/mL; IC50 (ug/ml), MDCK monolayer microneutralization assay [13]: 2.8 µg/mL; IC50 (ug/ml), MDCK monolayer microneutralization assay [14]: 3.9 µg/mL; IC50 (ug/ml), MDCK monolayer microneutralization assay [15]: 15.5 µg/mL; IC50 (ug/ml), MDCK monolayer microneutralization assay [16]: 1.6 µg/mL; IC50 (ug/ml), MDCK monolayer microneutralization assay [17]: 0.6 µg/mL; IC50 (ug/ml), MDCK monolayer microneutralization assay [18]: 0.8 µg/mL; Kd [19]: 0.2 nM; koff [19]: 5.8e-05 s⁻¹; kon [19]: 250000 M⁻¹ s⁻¹"
"TRL854 (antibody, V domains shown) VH: QVQLVESGAEVKKPGASVRVSCKGSGYTFTAYHMHWVRQAPGQGFEWVGWINPNSGATYYTSTFEGRVTMTRDTSITTAYMELSSLRSDDTAVYYCATDIVVERDASLGGFNSYGMDVWGQGTTVTVSS VL: DIEMTQSPLSLPVTPGEPASISCRSSQSLLHSNGYNHLAWYLQKPGRSPHLLIYLASTRASGVPDRFSGSGSGTDFTLKISRVEAEDVGIYYCMQSLQTSITFGQGTRLEIKR",8.8 nM,25.6 fold over background,25.6 fold over background,25.6 fold over background,25.6 fold over background,25.6 fold over background,Kd [20]: < 1 nM
